# Assay: soluble on expression in E. coli; label from the status in PepcDB or PDB records
row,Sequence,soluble on expression in E. coli
1,MSLATQAVSLARVRGPLALAALTLLGACSTRTAVPTPAPVAGSPSVAPESPRPPEVASGYRTGMTTAYAEQHMAAAANPLAAEAGRRILRQGGSAIDAAIAMQAVLTLVEPQASGIGGGAFLLYWDGKRVQAYDGWETAPAGADENLFLRPDGTSMGLSEARIGGRAVGVPGVLRALELAHRRYGKLPWTRLLQPAVELAEQGFPVSPRLYTQIAADPFIAGSPEMAAYFLTPQGKPKPVGTIVRNPQLAQTLREIARHGPGAFYAGPIAADIVKRVSGGANPGTLSLADLRGYRAKERDPICADYQRWKVCGMPPPSSGGIAIAQMLGTLQALAARDPKYALAAMAPRETTRAAGLEPSVDAVHVVSEAGRQADADRGLYVADADFVPVNVKGLTDPGYLTLRAGLIGDRSTGRADPGTPPGTSIALAPDRSPPRVSTSQIVAVDNAGGAVSMTTAIDSDFGAHLMVRGFVLNSGLTDFSFVPNDGGKPVANRVQAGKRPRSSMAPTLVFERDSGRLVAALGSPGGSQSIEYVSKTLIGLLDWDMDVQSAINLPNFGSRNGPTEVERGLVTQPLVQGLKARGHDVAQIEMTSGTQAIVRRRRDDGRWGWAGGADPRREGVALGDEGHHHHHH,not soluble
2,AHHHHHHGSPCYNLKNKVAIVTGGGQGIGAAIAQLFAENGAKVVLAEIDEEAGLEREAMLRERGLDVTFIKTDVADEESVKNMVKKTVELYGGVDILVNNAAIMSVKSIFERTLEEWERVIRVNLTGPYICSRYAAEEMIKRGGGVIINIASTRALMSEPDTEPYSASKGGLLALTHSLAISLAKYRIRVVAVSPGWIETSRWKKSKLRSEPKLRPIDHEQHPAGRVGDPMDIAHICAFLADNEKAGFITGVNFVVDGGMTVKMIYAD,not soluble
3,MKVIKSNKVTNKFKVSILISTYNKEKFIENTLNNILAQTMNKNDFELIIVDDCSTDNTLDIISKKIESFSNYQFVQLDENSGTPAKPRNLSIDLSKGKYIMFVDGDDWLPSDALENLYTLLKSNKTDYATGLTKYVYSDRIARSGVALSKIAYNKIGLKNFRKSFYHLAPAGRMMKSSVIKKNNIRFPEMIFGEDLQFFAEVFFNTKNISTTQDVVYCANRYDENISLVKSEASTVLNRIKWQNEAYRYLTKKYKNNKIFANLLYRIINKDILEGKFYKKGFIKEIDTLLPVFQDILNTIDNDFNSLDYADDTLNQHALTLIKNGDKEEIIDFVNFYLKKDEKPLYLSNDKYYYVYKENKYKKRMHIILQKIIKKDENIFLKLYSKNSELKYLEIKNRKDPTNYTVLEIKKHLFKTGEYTVQFKANELSKGKLALTVLDKDLNGAAIKSGMQFDFYETVNGNLGYIKKLEHHHHHH,soluble
4,MGSDKIHHHHHHMFNSERLCIARERRGLTQRALAEAAGLTSKTISNYEKAGIFDAIASDSMERISAVLEYPIEFFLDRDVPSLTPEAVSFRAMTKLSAQKRDSALGAGKLAQELSAWIDGQFKLPKPNVPDSSFDGYSEPERAARTVREAWGIGELSISNIVHLLEANGIRVFSLAENCVEVDAFSFWMDEKPFVLLNTMKTPERSRFDAAHELGHLVLHKHSCNNGRQAEQDADRFASAFLMPERSILASVPRMPRLEQLILLKKNWKVSLAALVRRTFDVGLSTEWHYRQLSIELNRRGYRTGEPQGMPEREKSLILEKVFSALRTQGIKRTEILGQLRFPADEVSALTFNNRFFMEAITGDGPQSYIERKQPPQLSLVK,not soluble
5,MEVDPGGGKKPMIVKKMVAFSKREEERILLEIDLYKKLENNEFVIDLMAHIVDDITHYLLFDKYSQNFLEYIEELKIGGEVDELKHLKYFSGIVSAIEQLHGFEFAHLDIKPANILKSGDTIKMIDFGSATKMPIEIKTSADHHRHKEDAEELCSMMYRAPELFNCEIGSTLTTAVDVWALGVCLYEFLYLENPFNKIYEQGGSIALATQSPHMIKWNENRHISEKSINLIKSILIVDPNQRPTIGELRAKVDNLLANFDTPEEAENPEITDEEFDLGMRETT,not soluble
6,MKSQFLLSVKEHMLTRYYANKTIESYLFWIKRFIVFHQFAHPSKLSEDDVIRFLSHLAIDEKVAVKTQALALNAISFLYRDFFKTPLSLDMRFQKSLTEKKLPVVLTRDEVRRFV,not soluble
7,MPDFKIVISDPQSVEPKRIKVKVKASDQVKSITGEKDGKAVPQAKVNEKTKQLLNVDTLLTLEITKQEGDKKVKVKGHFKVDVDNSVPDNEVWISKTMAEKFGAEDFEAFAYRTKTLQISVDQNKATNLVGLKIGDVFEANQLIGLPVKLKITGGSDNSGFPMRFDVIGAAKRKILLSGPPGFYPNENGERRRKTIRGNTISQEIVQINTIIVRLEHHHHHH,soluble
8,GPGSMPWEVKADNAYGIDYNKLIDKFGCKLITKDMIERMERLTGQKAHHFFRRNIFLSHRDFEKILDVYEKGELFYLYTGRGPSSESLHVGHLVPFLFTKYLQDTFKVPLVIQLTDDEKFIFKSNLTLEETHNYAYENMKDIIACGFDPELTFIFTNLEYIAELYPDILRIEKKISCSQIKSIFGFKDSCNVGKFAFPAVQAAPAFSSSFPHIFGGRTDIHCLVPHAIDQDPYFRMVRDVAPRLGYLKPSSIHSIFLPSLQGSQTKMSASVQNSSIFVNDNEESIRNKIMKYAFSGGQATEEEQRRLGANLDVDVSWQYLRFLMEDDEKLEEIGKKYSSGEMLSGEIKSILVQELVKLTKNHQKNREAINDDVIAKFTNKSREQLLKLFINKK,soluble
9,MPSKLALIQELPDRIQTAVEAAMGMSYQDAPNNVRRDLDNLHACLNKAKLTVSRMVTSLLEKPSVVAYLEGKA,soluble
10,QGDLLLAQYTRAYGYYNPAYAGMRKEIFITALHNRQWEGMPRSPKSFVVLADAPIRFFDREHGVGVRVVTETRGLFAINELMGQYAFKQKLFGGDLSVALQAGLVNTAFDGTKVELETENDPAIPLTKVSGKAFDIGAGIYYRRKE,not soluble
11,MGSDKIHHHHHHMIYRNWLGIIGVACILFVSCKPTEVDVPITYYSSFLLKDTTVMLSKVEMDPMQVNARCMVWDGDKRVLVRTSTTDSIYAVFAYPEMKFLSYTGSLSEYKQILAECNEGFYLVKDDSLYLYHLTDKDLLQKTTTHFLYNSNKIRLSKIKKLNDKMYTAHAYTDPSYNDIRLNEFYMLDAENNILYPKGHYPERTEVRFKTIFDFKFAYAHEVWPKPDGSRILVNYVRTRRFRIYDLSARLLHDVCLDYASNKYVVDADPKRWTTFIRDCFVTDKYIYLLCPEGEQSSLVIVDWEGRPIARYRLDEKIFFFFIDPDRNLFCGINSNNGQSFYFLDLDIN,not soluble
12,GMQQSEHFSFGEQTEIEDIGGGLKRQMLGFNHELMAVKIWFDKGAEGYVHAHRHSQVSYVVEGEFHVNVDGVIKVLTAGDSFFVPPHVDHGAVCPTGGILIDTFSPAREDFVEGLS,soluble
13,MGSDKIHHHHHHMECHIDLHNTVIQRRVPRDGRAAKHIGIAVFNGFSLLDTVSIVEAFETANRFAEASRHDAPRYVVRLLSSAGGRIASSSSVFVWTDSVEARGHAHDFHALFIAGGTGVHDAARDGRLLAWLRRTHLRSENVLSIAEGQFLLEAAGFASSAGIGSARGLVPRHYFRRETDPATQREVSSPLESALNLIEADLGTEITCKAAASLAPRASTQFTSVLNRNASGSVSDKIRASAQWLEANGHQPISIDRAAGIAAMSERNFLRRFKAEIGVTPSGYLLYVRLDMSCRLLVETALPVDKIARRCGFGDGGQLARLFRKHMGTTPSEYRNSHRQPHDR,not soluble
14,MRKLVIPKYYGRPSIGLALFGCTNRPFYHVCVFPDRALGRRYEGNILEQVGTFDPLPNQKNEKLVALNFGRLKYWIGERNAHISVPVLELLGERRNCLSGLFPIHPKSFIRAKDNRALIADQQLKVAAEAAEAEKVAQEQASTGAAATSHPQ,not soluble

# — the DeepSol protein solubility set
